Values of other authors, collected in paper PMC8588233.
Like-named read-outs stand apart in the source and are kept apart here.

Assays:
[1] = molecular target: HER2 (Homo sapiens) (UniProt P04626)
[2] = molecular target: HER2 (Homo sapiens) (UniProt P04626); remark: listed apart in the source
[3] = molecular target: HER2 (Homo sapiens) (UniProt P04626); remark: listed apart in the source

Q: Which Kd [1] does the source give for AHNP here?
A: 395 nM

Q: For AHNP (111In-DTPA-peptide-PEG), which Kd [2] is on record?
A: 300 nM

Q: Which Kd [3] does the source give for KCCYSL peptide here?
A: 295 nM
